Measured values published in PMC13601591 (Nature Communications, 2026).

Biological target: the molecule itself
Assay: SDS-resistant oligomer on SDS-PAGE and immunoblot

B1: fh1-HAP2-HA (HAP2 with W173A and F177A mutations in the fusion loop) (natural protein, Chlamydomonas reinhardtii, UniProt A4GRC6 23-1139, looked up)
chain: EVIASGRLEKCVVDGVTEELDCQEKVVVTLTVGNGQSLQTEALEFSLSCLNSPDGRCPCSCSAADPTCACRDLAAPLRVSLTKSPLWASYPLQYLSSFNWKPLEVILRPSNKVCKDGDWEDSPTCGWFSQGGVRVADSQGFCCECSSSQVADDTAGSSKERTRANLDCDFWSDPLDILIGRKPVSAHCLTFDPQWYSGYELGAASLQFEIAITVEVPTAPSPTTATTSATPRTNNSSSANSTNSTNSPAPQFLSPPAPSTREVLHLGPSVPLASSASRLLSAKLLGDLAMYTQLPAISNQVLMVPQPPAAAAATGSPLDATLATNRSAWMLLDKTMLSMDGLACDKVGTGFSAFRYQPSGCGRAPQACLSGQLKDLWEADLARIADGRVPLYMITRFTGGSDTTLQSFSGGPLSFALPVTSHSQSLVTLSVAADGVRLVTNRSPGKITGAAVCRFAGTSCGGFEAVAARGYIYVNITNTGRLDSDYTLTVSNCSSNVRPIEARTLAVRAGSAASLDPPMELYVEDQAAAAARTCTVSLYDSVGAVTDSLTLSFYTNATQLVVKPSGGYNGTGDGAGVKRNGTDCSTACTNPIDVLCFVTKKCWSKFGRLLGIIGGALVGLGLLAVALKFGWLASLAASCCGGGGGAAAGGAGGGMGLGTGGGGGCFGGGQQQQQLPPAASHAMSPPQQQQRSHAEVAAGAAVAGAGAAGAAAAVLGAKHGGGGGGARGKQQHADTRHLQDRDSRAIDGGASIGSSSAGGSSSLSSYSQPREAGGRLLQPPAAAVFVPEGGGGGAAGDEGARAQSSDWDARGRSPRVADEHGSPRQRYDGVRQSPYMVSANPYDGWYDGGSGGGGGGGGGGYGREAPPPQGPPPHPVGAPPPPPRRRSLWERMWLQRPGGGGGGGGGGGGGGGGGSGGGVDQHGGRSCADAARRGGGGPGGMRGVEGLMSNGGRPNGPHPHAPPPPPPPQQQQQQQRQRRSFLESLTAMMTLPWGGGREEEAGGDRRGGGRGGAAAAHGGRGAGGGRGHPPSIGSPPPGPLQPPEYGPQGGQARRWGAGGGRGGVGGDGGGGGVGAAAYVQLSTGGRGGGGGGGRGRGGGREGPTWHNPVYDWQAPPK
stoichiometry N: 3
